# Results published in paper PMC7138525 (Cell reports, 2020).
# B1: VHH JLI-G10 (VHH)
# VHH: QVQLVESGGGLVQAGGSLRLSCAASILTYDLDYYYIGWVRQAPGKEREGVSCISSTDGATYYADSVKGRFTISRNNAKNTVYLQMNNLKPEDTAIYYCAAAPLAGRYCPASHEYGYWGQGTQVTVSS
# B2: VHH JLI-G10, His6-tagged thioredoxin fusion with carboxy-terminal E-tag (VHH)
# VHH: QVQLVESGGGLVQAGGSLRLSCAASILTYDLDYYYIGWVRQAPGKEREGVSCISSTDGATYYADSVKGRFTISRNNAKNTVYLQMNNLKPEDTAIYYCAAAPLAGRYCPASHEYGYWGQGTQVTVSS
# B3: VHH JLK-G12 (from GST fusion) (VHH)
# VHH: QVQLVESGGGLVQAGGSLRLSCAASEFRAEHFAVGWFRQAPGKEREGVSCVDASGDSTAYADSVKGRFTISRDNNKNVVYLQMDSLEPEDTGDYYCGASYFTVCAKSMRKIEYRYWGQGTQVTVSS
# B4: VHH JLK-G12, His6-tagged thioredoxin fusion with carboxy-terminal E-tag (VHH)
# VHH: QVQLVESGGGLVQAGGSLRLSCAASEFRAEHFAVGWFRQAPGKEREGVSCVDASGDSTAYADSVKGRFTISRDNNKNVVYLQMDSLEPEDTGDYYCGASYFTVCAKSMRKIEYRYWGQGTQVTVSS
# B5: VHH JLI-H11 (from GST fusion) (VHH)
# VHH: QVQLVESGGGLVQPGESLRLSCGASGMSLDYYAIAWYRQAPGKEREGVSCISVSGSSAQYLDSVRGRFIISKDNTKSTAYLQMNSLKPEDTAVYYCAALADCAGYASLTFDFDSWGQGTQVAVSS
# B6: VHH JLI-H11, His6-tagged thioredoxin fusion with carboxy-terminal E-tag (VHH)
# VHH: QVQLVESGGGLVQPGESLRLSCGASGMSLDYYAIAWYRQAPGKEREGVSCISVSGSSAQYLDSVRGRFIISKDNTKSTAYLQMNSLKPEDTAVYYCAALADCAGYASLTFDFDSWGQGTQVAVSS
# B7: VHH JLO-G11, His6-tagged thioredoxin fusion with carboxy-terminal E-tag (VHH)
# VHH: QVQLAESGGGLVQPGGSLRLSCEASGFHLEHFAVGWFRQAPGKEREGVSCISASGDSTTYADSVKGRSTISKDNAKNAVYLQMDSLRPEDTGDYYCAASHFSVCGKNIRKIEYRYWGQGTPVTVSS
# How the values were obtained:
# [1] = molecular target: T1, HCB, receptor-binding domain of BoNT/B1 (E859–E1291) (UniProt P10844); test: crystal structure
# [2] = molecular target: T2, HCB, recombinant BoNT preparation coated for ELISA (Clostridium botulinum, BoNT/B subtype B1); test: ELISA
# T2 chain: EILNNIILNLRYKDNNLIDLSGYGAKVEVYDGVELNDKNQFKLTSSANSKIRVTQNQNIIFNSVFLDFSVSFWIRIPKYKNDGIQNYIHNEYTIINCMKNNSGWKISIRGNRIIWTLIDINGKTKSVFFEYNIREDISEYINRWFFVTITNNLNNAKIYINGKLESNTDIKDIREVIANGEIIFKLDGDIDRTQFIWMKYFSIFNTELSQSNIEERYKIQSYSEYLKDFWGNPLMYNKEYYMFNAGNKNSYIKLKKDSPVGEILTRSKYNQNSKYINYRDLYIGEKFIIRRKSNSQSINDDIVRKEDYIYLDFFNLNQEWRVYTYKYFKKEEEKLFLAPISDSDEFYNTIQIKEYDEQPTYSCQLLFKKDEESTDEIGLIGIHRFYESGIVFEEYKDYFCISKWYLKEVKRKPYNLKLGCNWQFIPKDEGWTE
# [3] = molecular target: T1, HCB, receptor-binding domain of BoNT/B1 …; test: SEC
Binder,binding result [2],further results
B1,–,binding result [1]: binds
B2,binds,–
B3,–,binding result [3]: binds
B4,binds,–
B5,–,binding result [3]: binds
B6,binds,–
B7,binds,–
